The values below come from patent US20240392013A1 (STELEXIS THERAPEUTICS, published 2024).

In test [1] the target is T1, cyIL1RAP-His (Lake Pharma) (cynomolgus monkey, UniProt A0A2K5X5J5 21-367).
T1 construct: Bought protein (Lake Pharma, lot 16205819371); also called cynomolgus IL1RAP; monkey IL1RAP; not shown: His tag
T1 sequence: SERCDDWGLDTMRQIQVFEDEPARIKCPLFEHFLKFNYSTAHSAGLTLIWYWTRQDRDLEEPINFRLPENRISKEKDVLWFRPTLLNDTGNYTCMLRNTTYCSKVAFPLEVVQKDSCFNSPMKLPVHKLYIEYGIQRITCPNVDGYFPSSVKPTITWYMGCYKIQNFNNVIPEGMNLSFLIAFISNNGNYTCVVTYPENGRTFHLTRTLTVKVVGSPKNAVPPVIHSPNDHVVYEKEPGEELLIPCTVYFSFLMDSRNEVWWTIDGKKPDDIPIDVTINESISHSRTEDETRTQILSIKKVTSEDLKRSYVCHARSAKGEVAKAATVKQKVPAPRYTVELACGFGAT
Kind of test: Octet BLI; mAb captured on anti-mouse IgG Fc sensor; cyIL1RAP-His analyte. A digest of the protocol:
(§1)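 Antibodies at 5 μg/ml were captured on anti-mouse IgG Fc biosensors; His-tagged human or cynomolgus IL1RAP extracellular domain served as analyte at 100, 50 and 25 nM in PBS kinetics buffer (0.1% BSA, 0.02% Tween-20). Association 120 s, dissociation 1200 s; KD (M) calculated from binding kinetics.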
(In BLI a coated tip is dipped into the sample, and binding shifts an interference pattern.)

For test [2], the target named is T2, recombinant human IL1RAP protein, extracellular domain His-tagged (Sino Biological, Cat #10121-H08H) (human, UniProt Q9NPH3 21-367).
T2 construct: extracellular domain; Bought protein; The Octet analyte is printed as huIL1RAP-His (Sino Biological, lot MB08MA1301) without a catalogue number; also called huIL1RAP-His; hIL1RAP; not shown: His tag
T2 sequence (looked up): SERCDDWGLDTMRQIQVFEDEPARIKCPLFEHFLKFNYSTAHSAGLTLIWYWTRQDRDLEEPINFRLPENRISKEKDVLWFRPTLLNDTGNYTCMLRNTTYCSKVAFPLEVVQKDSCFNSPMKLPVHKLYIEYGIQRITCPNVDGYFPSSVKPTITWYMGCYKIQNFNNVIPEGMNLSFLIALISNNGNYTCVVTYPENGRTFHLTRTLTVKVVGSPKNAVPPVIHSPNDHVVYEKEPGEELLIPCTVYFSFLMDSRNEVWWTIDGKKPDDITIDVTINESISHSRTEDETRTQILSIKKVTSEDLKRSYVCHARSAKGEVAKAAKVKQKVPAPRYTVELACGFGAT
Kind of test: Octet BLI; mAb captured on anti-mouse IgG Fc sensor; huIL1RAP-His analyte. A digest of the protocol:
as §1

In test [3] the target is T3, IL1RAP-Fc protein (Sino Biological, Cat #10121-H02H), recombinant human IL1RAP extracellular domain Fc-tagged (human, UniProt Q9NPH3 21-367).
T3 construct: extracellular domain; not shown: Fc tag
T3 sequence (looked up): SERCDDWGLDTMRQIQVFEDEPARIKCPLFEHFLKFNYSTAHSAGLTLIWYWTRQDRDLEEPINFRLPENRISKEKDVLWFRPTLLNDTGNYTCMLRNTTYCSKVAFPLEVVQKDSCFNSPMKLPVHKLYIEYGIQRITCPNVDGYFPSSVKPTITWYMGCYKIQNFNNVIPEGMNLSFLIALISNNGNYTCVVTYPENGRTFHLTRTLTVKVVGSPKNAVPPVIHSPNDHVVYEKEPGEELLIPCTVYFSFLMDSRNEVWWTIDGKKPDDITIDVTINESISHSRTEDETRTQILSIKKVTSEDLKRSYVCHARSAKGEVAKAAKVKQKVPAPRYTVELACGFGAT
Kind of test: cell-free competition ELISA: IL1RAP-Fc coated, mAb titrated, blocks binding of premixed IL1R1-His/IL1β complex. As for the experimental part:
High-binding 96-well plates were coated with IL1RAP-Fc protein (Sino Biological, Cat #10121-H02H) at concentration of 4 µg/ml and incubated overnight at 4° C. After 3× washes with 0.05% Tween-20 in PBS, pH 7.5, plates were blocked with 1% BSA in PBS for 1 hour at room temperature. Following, wells were incubated with each antibody at concentration of 50 nM for 1 hour at room temperature. […] IL1R1/IL1β complex was preincubated in assay buffer (1% BSA in PBS, pH 7.5) for 20 min at room temperature. After 3× washes, plates were incubated with anti-His HRP detection antibody (Medna, Cat #D8212, […]) for 1 hour at room temperature. Following 5× washes, SuperPico chemiluminescent substrate was applied to wells and signal was read on Spectramax M5.
On the technique in general: An ELISA detects its analyte on a solid surface through an enzyme-linked reagent.

Test [4] deals with T4, IL1RAP on HEK-Blue IL1β / HEK-Blue IL33 reporter cells (UniProt Q9NPH3 21-570, limits assumed).
T4 sequence (looked up): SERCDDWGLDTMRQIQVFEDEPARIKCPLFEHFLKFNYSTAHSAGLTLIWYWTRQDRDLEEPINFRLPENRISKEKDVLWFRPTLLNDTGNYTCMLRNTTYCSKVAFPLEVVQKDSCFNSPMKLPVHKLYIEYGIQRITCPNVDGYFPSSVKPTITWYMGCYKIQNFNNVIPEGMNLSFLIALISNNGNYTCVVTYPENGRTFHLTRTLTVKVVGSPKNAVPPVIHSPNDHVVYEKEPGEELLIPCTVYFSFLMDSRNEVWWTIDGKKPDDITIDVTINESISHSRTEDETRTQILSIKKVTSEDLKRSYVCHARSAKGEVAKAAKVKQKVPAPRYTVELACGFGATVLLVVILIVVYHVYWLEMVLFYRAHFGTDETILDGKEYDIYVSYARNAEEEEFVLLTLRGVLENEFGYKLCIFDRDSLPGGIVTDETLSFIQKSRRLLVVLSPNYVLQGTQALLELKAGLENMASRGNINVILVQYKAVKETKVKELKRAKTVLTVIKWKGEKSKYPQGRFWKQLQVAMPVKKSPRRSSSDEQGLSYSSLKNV
Kind of test: cell-based or functional assay.

B1: STLX2012 (antibody, V domains shown)
VH: QVQLLQSGAEVKKPGSSVKVSCKASGGTFSIYAIDWVRQAPGQGLEWMGGIIPIFGTANSAQKFQGRVTITADKSTSTAYMELSSLRSEDTAVYYCARNGATSDAFDMWGQGTMVTVSS
VL: EIVLTQSPGTLSLSPGERATLSCRASLSVSSNYLAWFQQRPGQAPRLLIHGVSRRATGIPDRFSGSGSGTDFTLTISRLEPEDFAVYYCQQYGSSPLTFGGGTKVEIK
notes: Purified from hybridoma of immunized Alivamab mice; intact IgG; captured on anti-mouse IgG Fc sensors in Octet; kappa light chain; also called 74804_12A21B
In general, Kd refers to the constant that tells how readily two partners part at equilibrium. Broadly, the koff is the rate constant with which the complex falls apart. Broadly, the kon is a measure of how fast the partners come together. As usually defined, the IC50 is the concentration that gives 50% inhibition. In the case of B1, in test [1], binding was put at a Kd of 1.29 nM, the Response was found to be 0.328, the koff amounted to 0.000441 s⁻¹ and the kon was 342000 M⁻¹ s⁻¹. Also, in test [2], the Kd amounted to 0.934 nM, the Response turned out to be 0.303, the koff is 0.000287 s⁻¹ and the on-rate (kon) amounted to 308000 M⁻¹ s⁻¹. Moreover, the IC50 in test [3] came to 0.824 nM. Moreover, in test [4], the “IC50, HEK-BlueIL1β NFκB Reporter Assay” value is 1.31e-09 M (implied; unit not printed) and the “Max % Inhibition at 200 nM, HEK-BlueIL1β NFκB Reporter Assay” value was 100%.

B2: STLX2043 (antibody, V domains shown)
VH: QVQLLQSGAEVKKPGSSVKVSCKASGGTFSIYAIDWVRQAPGQGLEWMGGIIPIFGTENSAQNFQGRITITADKSTNTAYMELSSLRSEDTAVYYCARNGATSDAFDIWGQGTMVTVFS
VL: EIVLTQSPGTLSLSPGERATLSCRASLSVSSNYLAWFQQRPGQAPRLLIYGVSRRATGIPDRFSGSGSGTDFTLTISRLEPEDFAVYYCQQYGSSPLTFGGGTKVEIK
notes: Purified from hybridoma of immunized Alivamab mice; intact IgG; captured on anti-mouse IgG Fc sensors in Octet; kappa light chain; also called 74804_43F04A
As for B2, in test [1], the Kd amounted to 0.97 nM, the Response was 0.286, the koff was determined as 0.0004 s⁻¹ and the kon worked out at 412000 M⁻¹ s⁻¹. In test [2], the Kd is 0.425 nM, the Response came out at 0.251, the dissociation rate constant (koff) was found to be 0.000149 s⁻¹ and the kon came out at 350000 M⁻¹ s⁻¹. Besides, in test [3], the IC50 came out at 0.804 nM. Further, in test [4], the “IC50, HEK-BlueIL1β NFκB Reporter Assay” value was 2.29e-09 M (implied; unit not printed) and the “Max % Inhibition at 200 nM, HEK-BlueIL1β NFκB Reporter Assay” value was determined as 99%.
